Several values for one entry are separate records, joined by “and”; a condition that tells them apart may be missing. Identical values can stand only once.
B1: H. aurantiacus IPK: Herpetosiphon aurantiacus isopentenyl phosphate kinase, SEQ ID NO: 19, Genbank YP_001545053 (protein, listed as Herpetosiphon aurantiacus)
chain: MNKPIFIKLGGSMLTDKTTAERLVDQTLKQVVTDLSAWRQAHPNQPILLGHGGGSFGHYWAERYQTAQGIINEQSWWGVARVADAMARLNRAVVGACLDADLPAIGIQPMASSLANAGEIQQIGSQPLATLLAAGTIPVIYGDVLLDVAQGCTIASTERIFSALVGPLQPTQIILLGEQAVYDADPRQHADAQPIPLINRTNYATIIARLGGSHGVDVTGGMRNKVEAMWQLVQQAPQLEIWICGPQQLQSALSGQLNGPGTIIKLD
B2: Herpetosiphon PMevDC: Herpetosiphon aurantiacus phosphomevalonate decarboxylase, SEQ ID NO: 16, Genbank YP_001544383 (protein, listed as Herpetosiphon aurantiacus)
chain: MKQLSHAATAVACANIAFIKYWGQHDSQLTLPTNGSISMNLDGCLTETTVQCLPEAVDDSVWLALSGGEEVQAKGRQFERVIQQIERLRQLAGVTERVEVRSRNNFPSDAGIASSAAAFAALTRAAASAFRLELDEAELSRLTRLSGSGSACRSIPAGFVEWYNDGTHAGSYAAQIAPPEHWNLVDIVAVISTEAKHVASTSGHSVATTSPYFSVRLEGIEQRLADVRQGILERDIERLGRASEADAMSMHVIAMTAQPSTMYWLPGTLAVMQAVQRWRAQDNLQSYWTIDAGPNVHVICEAKDAPEVEARLCELDAVQWTIVNGAGPEARLVG
B3: S. cerevisiae MVD: Mevalonate decarboxylase (MVD) from Saccharomyces cerevisiae used as a reference (protein, UniProt P32377 1-396, looked up)
Diphosphomevalonate …: MTVYTASVTAPVNIATLKYWGKRDTKLNLPTNSSISVTLSQDDLRTLTSAATAPEFERDTLWLNGEPHSIDNERTQNCLRDLRQLRKEMESKDASLPTLSQWKLHIVSENNFPTAAGLASSAAGFAALVSAIAKLYQLPQSTSEISRIARKGSGSACRSLFGGYVAWEMGKAEDGHDSMAVQIADSSDWPQMKACVLVVSDIKKDVSSTQGMQLTVATSELFKERIEHVVPKRFEVMRKAIVEKDFATFAKETMMDSNSFHATCLDSFPPIFYMNDTSKRIISWCHTINQFYGETIVAYTFDAGPNAVLYYLAENESKLFAFIYKLFGSVPGWDKKFTTEQLEAFNHQFESSNFTARELDLELQKDVARVILTQVGSGPQETNESLIDAKTGLPKE
B4: S378Pa3-2 PMevDC: phosphomevalonate decarboxylase isolated from a soil metagenomic library, SEQ ID NO: 18 (protein)
chain: MDYYYRVINNNEIPMKSPEFLEVSALAHPNIAFIKYWGNRDNDLRLPCNGSLSMNLSGLETKTSVQFDPSLSADQFKLSGKPIEWDALRRVSDFLEIVRDLAGISFFAKVESENSFPSGAGIASSASAFAALALAASKAAGLSLDEEALSRLARRGSGSACRSIPDGFVEWQAGSTDQDSFAWSIAPADHWDLVDLICVLNSEHKTVGSTGGHALASTSDLHLLRQERVEERIEICRKAILDRDFEHFASVVEEDSNLMHAVMRTSKPPLNYWLPETEVILWKVIHWRKKGIPVCSTVDAGPNVHVLTLSSEAEKVEALLKECPGVQSIFKARAGQGAQLI
modifications: Isolated from a metagenomic library constructed from soil samples

Tests used:
[1] = SDS-PAGE analysis of His-tagged and TEV protease cleaved PMevDCs and IPKs (solubility); format: physicochemical; details: FIG. 9
Description: Strains MCM2257, MCM2258, MCM2259, MCM2260, MCM2261, and MCM2262 were inoculated in 1 liter of LB medium containing the appropriate antibiotic and incubated at 34° C. for 7 hours from overnight cultures grown at 34° C. in LB broth containing the appropriate antibiotic (Table 7). Cultures at an OD 0.5-0.7 were induced with 200 μM IPTG. After induction, cells were harvested by centrifugation at 10000×g for 10 minutes. After removal of the supernatant, the cell pellets were resuspended in 40 mL lysis buffer containing 50 mM KPO4, pH 8.0, 0.3 M NaCl, 0.02 mM imidizole, 1 mg/mL lysozyme, and 1 mg/mL DNAase. The cells were lysed using a french pressure cell at 14,000 psi and the cell lysate was centrifuged at 50,000×g for 1 hour. The supernatant was collected, passed over a Ni-affinity resin before the resin was washed with 10 column volumes of lysis buffer containing 50 mM imidazole. The protein was eluted with 5 column volumes of lysis buffer containing 250 mM imidizole. Collected fractions were concentrated and passed over PD-10 columns for buffer exchange and the final collected protein samples were >95% pure according to SDS-PAGE analysis. The purified samples were incubated with TEV protease overnight at 4° C. to remove histidine tags from the purified proteins. The digested samples were subsequently passed over Ni-affinity resin and the flow-through was collected and analyzed by SDS-PAGE.
H. aurantiacus PMevDC (lanes 2 and 3), H. aurantiacus IPK (lanes 4 and 5), and S378Pa3-2 PMevDC (lanes 6 and 7) were all soluble whether they were expressed with an attached His-tag or without a His-Tag (FIG. 9).

[2] = Kinetic characterization of decarboxylases (coupled spectrophotometric assay), diphosphomevalonate as substrate; format: biochemical; details: 34° C., 5 mM ATP, 10-250 μM (R)-diphosphomevalonate; for kcat ± SD, Diphosphomevalonate: * using 1 mM substrate; for Km: read-out: KM ± SD, Diphosphomevalonate
Description: (§1) PMevDCs were incubated in the presence of mevalonate, phosphomevalonate, diphosphomevalonate, ATP, MgCl2 and the products of the reactions were confirmed by LC-MS. Mevalonate decarboxylase (MVD) from Saccharomyces cerevisiae was used as a reference. The catalytic activities of the decarboxylases were measured using a modified spectrophotometric assay that coupled ADP formation to pyruvate synthesis and reduction to lactate. The initial rate of disappearance of NADH was monitored at 340 nm on a SpectraMax M5 (Molecular Devices) to measure the reaction rate catalyzed by the PMevDCs. Samples for reaction rate studies contained 0.8 mM phosphoenolpyruvate, 0.05 mM DTT, 0.32 mM NADH, 10 mM MgCl2, 4 U lactate dehydrogenase, 4 U pyruvate kinase, 5 mM ATP and 10-250 μM (R)-phosphomevalonate or 10-250 μM (R)-diphosphomevalonate. All reactions were performed at 34° C. Reaction rate data was processed using Microsoft Excel and kinetic parameters were determined using Kaleidagraph.

[3] = Kinetic characterization of decarboxylases (coupled spectrophotometric assay), phosphomevalonate as substrate; format: biochemical; details: 34° C., 5 mM ATP, 10-250 μM (R)-phosphomevalonate, * using 1 mM substrate
Description: as §1

[4] = In vitro metabolite measurement, substrate conversion by crude E. coli lysate, substrate IP; format: biochemical; details: crude extract from E. coli DH10b overexpressing S378Pa3-2
Description: (§2) In vitro assays were done with crude extracts from E. coli DH10b overexpressing pMCM2212. […] Negative control assays were done with extracts of E. coli harboring pTrcHis2b without insert. Substrates for in vitro conversions were mevalonate (MVA), mevalonate phosphate (MVP) also referred to as mevalonate 5-phosphate, mevalonate diphosphate (MVPP) also referred to as mevalonate 5-pyrophosphate, and isopentenyl phosphate (IP). Substrate conversion and product formation was analyzed by LC/MS.
(§3) Mass spectrometric analysis of metabolites was performed using a TSQ Quantim triple quadrupole instrument (Thermo Scientific). System control, data acquisition, and data analysis were done with XCalibur and LCQuan software (Thermo Scientific). About 10 μL samples were applied to a C18 Synergi MAX-RP HPLC column (150×2 mm, 4 uM, 80 A, Phenomenex) equipped with the manufacturer-recommended guard cartridge. The column was eluted with a gradient of 15 mM acetic acid+10 mM tributylamine in MilliQ-grade water (solvent A) and LCMS-grade methanol from Honeywell, Burdick & Jackson (solvent B). […] Concentrations of metabolites in cell extracts were determined based on calibration curves obtained by injection of commercial standards dissolved in 20% methanol/50 mM NH4Ac buffer (pH 7.0) to 0.5 ppm to 50 ppm final concentration. […]

[5] = In vitro metabolite measurement, substrate conversion by crude E. coli lysate, substrate MVA; format: biochemical; details: crude extract from E. coli DH10b overexpressing S378Pa3-2
Description: as §2, §3

screening host V. 05 = assay: Activity-based screening for PMevDC in MVA-auxotrophic screening host; format: cell-based, E. coli; details: for growth / complementation of the lower MVA pathway in screening host in presence of MVA: 500 μM MVA
[6] = In vitro metabolite measurement, substrate conversion by crude E. coli lysate, substrate MVPP; format: biochemical; details: crude extract from E. coli DH10b overexpressing S378Pa3-2
Description: as §2, §3

[7] = In vitro metabolite measurement, substrate conversion by crude E. coli lysate, substrate MVP; format: biochemical; details: crude extract from E. coli DH10b overexpressing S378Pa3-2
Description: as §2, §3

[8] = listed as Herpetosiphon aurantiacus ATCC 23779 PMevDC

Row | Molecule | solubility of expressed enzyme with or without His-tag [1] | kcat ± SD, Diphosphomevalonate [2] | kcat ± SD, Diphosphomevalonate [2, 8] | kcat ± SD, Phosphomevalonate [3] | kcat ± SD, Phosphomevalonate [3, 8] [s⁻¹] | Km [2] [µM] | use of IP as substrate [4] | use of MVA as substrate [5] | growth / complementation of the lower MVA pathway in screening host in presence of MVA (screening host V. 05) | growth / complementation of the lower MVA pathway in screening host in presence of MVA (screening host V. 05; listed as cds#2) | growth in presence of Fosmidomycin (screening host V. 05; Fosmidomycin 32 μg/ml, 500 μM MVA supplied) | activity of crude extract on MVPP [6] | activity of crude extract on MVP [7]
1 | B1 | soluble | – | – | – | – | – | – | – | – | – | – | – | –
2 | B2 | soluble | <0.02* s^−1 | less than 0.02 s^−1 | 3.3 ± 0.2 s⁻¹ | 3.3 | – | – | – | – | – | – | – | –
3 | B3 | – | 11.6 s⁻¹ and 11.6 ± 0.6 s⁻¹ | – | – | – | 44 | – | – | – | – | – | – | –
4 | B4 | soluble | 1.09 s⁻¹ and 1.09 ± 0.09 s⁻¹ | – | 2.9 s⁻¹ and 2.9 ± 0.5 s⁻¹ | – | 22 | not used as substrates | not used as substrates | sustained growth | able to complement the lower MVA pathway | grew unrestricted | some activity on MVPP | activity on MVP
